Consider 3 molecules from patent US20040248206A1 (FIBROGEN, published 2004).

Some results are limits rather than exact numbers.

Assay [1] addresses T1, 5MER.
T1 construct: The N-terminal C is probably the added, non-native cysteine (underlining lost in the text)
T1 peptide: CRVKL
Briefly: ELISA with synthetic peptide. A general note: In an ELISA, binding on a coated surface is turned into a signal by an enzyme label.

Assay [2] concerns the target T2, 7MER.
T2 construct: The N-terminal C is probably the added, non-native cysteine (underlining lost in the text)
T2 peptide: CPRRVKL
Briefly: ELISA with synthetic peptide.

Assay [3] concerns the target T3, 10MER2.
T3 peptide: SPDCPFPRRV
Briefly: ELISA with synthetic peptide.

In assay [4] the target is T4, PC5444.
T4 construct: Synthetic peptide of the exon 3 region with Ser where native CTGF has Cys
T4 peptide: PLSSMDVRLPSPDS
Briefly: ELISA with synthetic peptide.

Assay [5] addresses T5, PEP5 (human).
T5 peptide: RLPSPDCPFPRRVKL
Briefly: ELISA with synthetic peptide.

The target of assay [6] is T6, 8MER2.
T6 peptide: CFPRRVKL
Briefly: ELISA with synthetic peptide.

For assay [7], the target named is T7, 9MER2.
T7 peptide: CPFPRRVKL
Briefly: ELISA with synthetic peptide.

Assay [8] has as its target T8, P40340 (human).
T8 peptide: RLPSPDCPFPRRV
Briefly: ELISA with synthetic peptide.

The target of assay [9] is T9, 8MER.
T9 peptide: DSPFPRRV
Briefly: ELISA with synthetic peptide.

In assay [10] the target is T10, 6MER.
T10 construct: The N-terminal C is probably the added, non-native cysteine (underlining lost in the text)
T10 peptide: CRRVKL
Briefly: ELISA with synthetic peptide.

Assay [11] addresses T11, P40341.
T11 construct: Same as P40340 with Ser in place of the Cys
T11 peptide: RLPSPDSPFPRRV
Briefly: ELISA with synthetic peptide.

Assay [12] has as its target T12, PC5445 (human).
T12 peptide: RLPSPDSPFPRRVKLPGK
Briefly: ELISA with synthetic peptide.

For assay [13], the target named is T13, P40342 (human).
T13 peptide: LPSPDCPFPRRVKL
Briefly: ELISA with synthetic peptide.

Assay [14] addresses T14, 9MER.
T14 peptide: PDSPFPRRV
Briefly: ELISA with synthetic peptide.

In assay [15] the target is T15, 10MER.
T15 peptide: SPDSPFPRRV
Briefly: ELISA with synthetic peptide.

Assay [16] deals with T16, recombinant human connective tissue growth factor (UniProt P29279 27-349).
T16 chain: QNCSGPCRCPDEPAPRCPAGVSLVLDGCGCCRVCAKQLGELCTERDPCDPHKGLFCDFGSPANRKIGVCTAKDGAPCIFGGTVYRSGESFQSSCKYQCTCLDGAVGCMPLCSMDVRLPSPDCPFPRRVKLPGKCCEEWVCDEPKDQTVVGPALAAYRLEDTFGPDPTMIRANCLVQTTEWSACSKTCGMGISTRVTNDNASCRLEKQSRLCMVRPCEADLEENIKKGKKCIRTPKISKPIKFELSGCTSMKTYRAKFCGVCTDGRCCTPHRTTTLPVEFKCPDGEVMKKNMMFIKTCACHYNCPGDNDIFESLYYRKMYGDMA
Briefly: Scatchard competitive binding; mAb 5 ng/ml.

Assay [17] deals with T17, rat CTGF (rat, UniProt Q9R1E9 25-347).
T17 chain: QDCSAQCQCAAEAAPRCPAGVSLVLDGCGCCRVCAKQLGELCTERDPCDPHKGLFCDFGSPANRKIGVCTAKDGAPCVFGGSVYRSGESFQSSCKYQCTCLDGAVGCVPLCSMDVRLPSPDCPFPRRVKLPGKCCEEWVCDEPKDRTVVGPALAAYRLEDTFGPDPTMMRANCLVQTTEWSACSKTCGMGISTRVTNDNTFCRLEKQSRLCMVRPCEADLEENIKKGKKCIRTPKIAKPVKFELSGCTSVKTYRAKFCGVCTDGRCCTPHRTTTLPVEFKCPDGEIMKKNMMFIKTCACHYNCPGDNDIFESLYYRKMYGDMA
Briefly: Scatchard competitive binding; mAb 10 ng/ml; labeled human CTGF vs unlabeled rat CTGF.

Assay [18] addresses T16, recombinant human connective tissue …. Briefly: Scatchard competitive binding; mAb 10 ng/ml.
For assay [19], the target named is T18, recombinant human connective tissue growth factor (human, UniProt P29279 27-349).
T18 construct: Radio-iodinated in the RIA; also called rhCTGF; CTGF
T18 sequence: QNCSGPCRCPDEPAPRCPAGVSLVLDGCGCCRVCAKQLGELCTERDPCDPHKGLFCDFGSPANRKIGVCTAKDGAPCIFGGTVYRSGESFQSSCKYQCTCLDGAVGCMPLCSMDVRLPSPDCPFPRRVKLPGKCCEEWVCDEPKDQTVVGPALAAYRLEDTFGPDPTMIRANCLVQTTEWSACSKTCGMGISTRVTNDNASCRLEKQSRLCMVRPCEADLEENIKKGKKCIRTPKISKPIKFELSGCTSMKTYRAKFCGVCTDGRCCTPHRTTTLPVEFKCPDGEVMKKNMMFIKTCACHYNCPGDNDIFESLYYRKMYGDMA
Briefly: RIA, immobilized antibody, [125I]rhCTGF with unlabeled rhCTGF, Scatchard. How it is done:
The affinity of each antibody population identified by epitope mapping was measured using RIA, wherein whole rhCTGF was radio-iodinated and added to wells containing immobilized monoclonal antibody, as follows. Recombinant human CTGF was radiolabeled with ¹²⁵I using the chloramine-T method. (See, Greenwood et al. (1963) Biochem J 89:114-123.) Typically, at least 60% of the ¹²⁵I was incorporated and the specific activity of the labeled CTGF was at least 1×10⁵ cpm/ng, although labeled CTGF of lower specific activity can be used in the radioimmunoassay. Goat anti-human IgG, γFc-specific capture antibody (Jackson ImmunoResearch) in Ca²⁺- and Mg²⁺-free DPBS (Mediatech, Herrndon Va.) was added to the wells of a MAXISORP BREAKAPART microtiter plate (Nalge Nunc International, Rochester N.Y.) and allowed to bind overnight at 4° C. The wells were then blocked with 1% BSA in Ca²⁺- and Mg²⁺-free DPBS for at least 4 hours at 4° C. […] Wells were then washed four times with 0.1% Tween 20 in Ca²⁺- and Mg²⁺-free PBS (Mediatech), and the wells of the microtiter plate were separated and counted in a gamma counter.
Affinity was estimated graphically by the method of Scatchard (1948, Ann NY Acad Sci 51:660-72). The total concentration of labeled CTGF applied to the plate was calculated as […]

Assay [20] has as its target T19, rat CTGF (rat, UniProt Q9R1E9 25-347).
T19 construct: also called unlabeled rat CTGF; recombinant rat CTGF
T19 sequence (looked up): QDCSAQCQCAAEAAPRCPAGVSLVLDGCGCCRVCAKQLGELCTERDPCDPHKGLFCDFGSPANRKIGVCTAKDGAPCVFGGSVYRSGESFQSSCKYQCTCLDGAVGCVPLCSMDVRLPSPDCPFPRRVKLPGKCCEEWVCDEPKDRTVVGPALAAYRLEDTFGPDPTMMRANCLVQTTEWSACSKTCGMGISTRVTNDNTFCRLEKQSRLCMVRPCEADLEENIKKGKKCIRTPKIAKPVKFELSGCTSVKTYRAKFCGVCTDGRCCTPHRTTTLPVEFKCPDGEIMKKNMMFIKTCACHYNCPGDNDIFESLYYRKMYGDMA
Briefly: RIA, unlabeled rat CTGF competing with [125I]rhCTGF for immobilized antibody. How it is done: (§1) The affinity of each antibody population identified by epitope mapping was measured using RIA, wherein whole rhCTGF was radio-iodinated and added to wells containing immobilized monoclonal antibody, as follows. Recombinant human CTGF was radiolabeled with ¹²⁵I using the chloramine-T method. (See, Greenwood et al. (1963) Biochem J 89:114-123.) Typically, at least 60% of the ¹²⁵I was incorporated and the specific activity of the labeled CTGF was at least 1×10⁵ cpm/ng, although labeled CTGF of lower specific activity can be used in the radioimmunoassay. Goat anti-human IgG, γFc-specific capture antibody (Jackson ImmunoResearch) in Ca²⁺- and Mg²⁺-free DPBS (Mediatech, Herrndon Va.) was added to the wells of a MAXISORP BREAKAPART microtiter plate (Nalge Nunc International, Rochester N.Y.) and allowed to bind overnight at 4° C. The wells were then blocked with 1% BSA in Ca²⁺- and Mg²⁺-free DPBS for at least 4 hours at 4° C. The blocking solution was removed and 100 μl of test antibody at 2-50 ng/ml in Ca²⁺- and Mg²⁺-free DPBS was added and allowed to bind overnight at 4° C. […] Wells were then washed four times with 0.1% Tween 20 in Ca²⁺- and Mg²⁺-free PBS (Mediatech), and the wells of the microtiter plate were separated and counted in a gamma counter. […]

In assay [21] the target is T17, rat CTGF. Briefly: Scatchard competitive binding; mAb 5 ng/ml; labeled human CTGF vs unlabeled rat CTGF.
Assay [22] deals with T16, recombinant human connective tissue …. Briefly: Scatchard competitive binding; mAb 25 ng/ml.
The target is the same in assay [23]. Briefly: Scatchard competitive binding; mAb 2.5 ng/ml.
Assay [24] deals with T18, recombinant human connective tissue …. Briefly: not stated (assays as described in Example 4).
For assay [25] the target is unchanged. Briefly: RIA as in Example 4.2. Here is the method:
as §1

B1: mAb1 (antibody, V domains shown)
VH: EGQLVQSGGGLVHPGGSLRLSCAGSGFTFSSYGMHWVRQAPGKGLEWVSGIGTGGGTYSTDSVKGRFTISRDNAKNSLYLQMNSLRAEDMAVYYCARGDYYGSGSFFDCWGQGTLVTVSS
VL: DIQMTQSPSSLSASVGDRVTITCRASQGISSWLAWYQQKPEKAPKSLIYAASSLQSGVPSRFSGSGSGTDFTLTISSLQPEDFATYYCQQYNSYPPTFGQGTKLEIKR
notes: also called exemplary antibody of the invention; antibody of hybridoma cell line 8C12-F10
Broadly, the Kd is the free concentration of one partner at which half of the binding sites on the other are occupied at equilibrium, for simple one-to-one binding. Consider B1, for which the binding result is recorded as “no binding” in [1]; “no binding” in assay [2]; “no binding” in [3]; “no binding” in assay [4]; “binds” in assay [5]; “no binding” in [6]. Further, the binding result in assay [7] was “no binding”; in [8] it was “binds”; in assay [9], “no binding”; in assay [10], “no binding”; in [11], “no binding”; in assay [12] it was “binds”. For the same molecule, the binding result is listed as “binds” in assay [13], “no binding” in assay [14], “no binding” in assay [15] and “binds” in assay [20]. The Kd in [16] is 0.239 nM; in assay [17], 0.339 nM; in [18], 0.271 nM; in assay [19], below 1 nM; in assay [21] it was 0.317 nM; in assay [22], 0.384 nM. Besides, the Kd in assay [23] was found to be 0.215 nM.

B2: CLN1 (antibody, V domains shown)
VH: EGQLVQSGGGLVHPGGSLRLSCAGSGFTFSSYGMHWVRQAPGKGLEWVSGIGTGGGTYSTDSVKGRFTISRDNAKNSLYLQMNSLRAEDMAVYYCARGDYYGSGSFFDCWGQGTLVTVSS
VL: DIQMTQSPSSLSASVGDRVTITCRASQGISSWLAWYQQKPEKAPKSLIYAASSLQSGVPSRFSGSGSGTDFTLTISSLQPEDFATYYCQQYNSYPPTFGQGTKLEIKR
notes: also called recombinant antibody from COS7 cells co-transfected with plasmids 44a1 and 42b2
Take B2: the Kd in [24] was found to be 0.8 nM.

B3: deglycosylated mAb1 (antibody, V domains shown)
VH: EGQLVQSGGGLVHPGGSLRLSCAGSGFTFSSYGMHWVRQAPGKGLEWVSGIGTGGGTYSTDSVKGRFTISRDNAKNSLYLQMNSLRAEDMAVYYCARGDYYGSGSFFDCWGQGTLVTVSS
VL: DIQMTQSPSSLSASVGDRVTITCRASQGISSWLAWYQQKPEKAPKSLIYAASSLQSGVPSRFSGSGSGTDFTLTISSLQPEDFATYYCQQYNSYPPTFGQGTKLEIKR
modifications: N-linked oligosaccharides removed with peptide N-glycosidase F (PNGase F)
notes: also called deglycosylated antibody; PNGase F treated mAb1
On to B3, for which the binding result in assay [25] was “binds”.
